In patent publication US6033882A, “Chiral synthesis of 2-hydroxy carboxylic acids with a dehydrogenase” (Genzyme Corporation, priority 1994, dated 2000):
Substitutions are numbered along the chain they refer to. Read-outs that look alike come from different tables or passages of the source. Each block holds one molecule with its values, some of them ahead of it.

Assays:
[1] = target: T1, Lactobacillus delbrueckii ssp. Bulgaricus R-2-hydroxy acid dehydrogenase (LB2HADH), wild type (H206), SEQ ID NO:1 (Lactobacillus delbrueckii, UniProt Q48534); assay: Steady-state kinetics of 2-keto acid reduction, followed by NADH oxidation; type: biochemical
T1 construct: no tag mentioned
T1 sequence (Q48534 1-333): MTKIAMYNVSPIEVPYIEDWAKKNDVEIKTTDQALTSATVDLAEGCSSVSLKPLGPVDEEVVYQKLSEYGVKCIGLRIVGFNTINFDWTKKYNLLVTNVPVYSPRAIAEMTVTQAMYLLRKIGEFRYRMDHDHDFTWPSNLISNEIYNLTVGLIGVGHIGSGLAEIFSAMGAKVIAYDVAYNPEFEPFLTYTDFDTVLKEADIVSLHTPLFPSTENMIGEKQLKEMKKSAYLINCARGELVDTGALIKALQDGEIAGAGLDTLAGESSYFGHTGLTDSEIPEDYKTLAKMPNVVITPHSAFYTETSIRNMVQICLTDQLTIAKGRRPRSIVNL
From the text: Since 1950, a number of workers have investigated the reduction of 2-oxo carboxylic acids catalysed by R-hydroxy acid dehydrogenases. For these studies, enzymes isolated from a variety of bacte rial sources have bee n employed. For a given 2-oxo acid, a given enzyme activity may be examined by UV spectroscopy and quantified with the Michaelis constant, Km, and the catalytic turnover, kcat.
The two compartment model for the binding pocket of the enzyme is illustrated in accompanying FIG. 1.
The substrate specificity of the purified enzyme was established by following the kinetics of reduction of a variety of 2-ketoacids (see Table 2 above).
(The steady-state kinetic constants of LB2HADH and H206Q in Table 6 below were obtained using standard stopped flow measurements.)

[2] = target: T2, Lactobacillus delbrueckii ssp. Bulgaricus R-2-hydroxy acid dehydrogenase (LB2HADH) variant H206Q (Q206 mutant, Histidine 206 replaced by glutamine) (Lactobacillus delbrueckii, UniProt Q48534, H207Q); assay: as above; type: biochemical
T2 construct: no tag mentioned
T2 sequence (Q48534 1-333 H207Q): T1 sequence (Q48534 1-333) with H207Q
Protocol: Glutamine 206 variant of LB2HADH:
A site-directed mutant was prepared from pGIN113 (Bernard, N., et al, Eur. J. Biochem., (1994), 224, 439-446) using a mutagenic oligonucleotide:
and the Promega "altered sites mutagenesis" kit. The enzyme was purified as for the wild type.
The vQ206 /vwt was 45 at 70 mM substrate.
The results are illustrated in accompanying FIG. 2, the Vmax values for H206Q being divided by 10 to obtain a clearer representation of comparative performance. […] (The steady-state kinetic constants of LB2HADH and H206Q in Table 6 below were obtained using standard stopped flow measurements.)

[3] = substrate: CC(=O)C(=O)O; assay: purified protein, by the assay type; type: biochemical, Lactobacillus delbrueckii ssp. Bulgaricus; details: other: pH 7.5; [NADH] = 0.2 mM; pH 7.5
[4] = substrate: CCC(=O)C(=O)O; assay: purified protein, by the assay type; type: biochemical, Lactobacillus delbrueckii ssp. Bulgaricus; details: other: pH 7.5; [NADH] = 0.2 mM; pH 7.5
[5] = substrate: CCCCC(=O)C(=O)O; assay: purified protein, by the assay type; type: biochemical, Lactobacillus delbrueckii ssp. Bulgaricus; details: other: pH 7.5; [NADH] = 0.2 mM; pH 7.5
[6] = substrate: CC(C)C(=O)C(=O)O; assay: purified protein, by the assay type; type: biochemical, Lactobacillus delbrueckii ssp. Bulgaricus; details: other: pH 7.5; [NADH] = 0.2 mM; pH 7.5
[7] = substrate: CCCC(=O)C(=O)O; assay: purified protein, by the assay type; type: biochemical, Lactobacillus delbrueckii ssp. Bulgaricus; details: other: pH 7.5; [NADH] = 0.2 mM; pH 7.5
[8] = substrate: O=C(O)C(=O)CCc1ccccc1; assay: purified protein, by the assay type; type: biochemical, Lactobacillus delbrueckii ssp. Bulgaricus; details: other: pH 7.5; [NADH] = 0.2 mM; pH 7.5
[9] = substrate: O=C(O)C(=O)CCC1CCCC1; assay: purified protein, by the assay type; type: biochemical, Lactobacillus delbrueckii ssp. Bulgaricus
[10] = substrate: CC(C)CC(=O)C(=O)O; assay: purified protein, by the assay type; type: biochemical, Lactobacillus delbrueckii ssp. Bulgaricus
[11] = substrate: NC(=O)C1=CN([C@@H]2O[C@H](COP(=O)(O)OP(=O)(O)OC[C@H]3O[C@@H](n4cnc5c(N)ncnc54)[C@H](O)[C@@H]3O)[C@@H](O)[C@H]2O)C=CC1; assay: purified protein, by the assay type; details: other: pH 5.5, stopped flow
[12] = other: pH 7.5, [NADH] = 0.2 mM, pH 7.5
[13] = other: pH 5.0, stopped flow, pH 5.0
[14] = other: pH 5.5, stopped flow, pH 5.5
[15] = other: pH 6.0, stopped flow, pH 6.0
[16] = other: pH 6.5, stopped flow, pH 6.5

Molecule: CC(=O)C(=O)O [pyruvate]
Vm (VM (app): turnover at optimal substrate concentration) ([1]; pH 7.5, [NADH] = 0.2 mM): 48 s⁻¹

Km ([1]; pH 7.5, [NADH] = 0.2 mM, read-out: Km (KM (app): substrate concentration for 0.5 Vmax)): 31 µM
Molecule: O=C(O)C(=O)Cc1ccccc1 [phenylpyruvate]

Molecule: O=C(O)C(=O)CCc1ccccc1 [benzylpyruvate, 2-oxo-4-phenyl butanoate]
Vm (VM (app): turnover at optimal substrate concentration) ([1]; pH 7.5, [NADH] = 0.2 mM): 51 s⁻¹

Molecule: O=C(O)C(=O)CCC1CCCC1 [cyclopentylmethyl, 4-cyclopentyl-2-keto-butanoate]
Ki ([2]; read-out: Ki (substrate), substrate inhibition, Q206 mutant): > 100 mM
Ki ([1]; substrate inhibition, wild type, read-out: Ki (substrate)): 2 mM

Molecule: CC(C)CC(=O)C(=O)O [ketoisocaproate, 4-methyl-2-oxo-pentanoic acid]
Ki ([2]; read-out: Ki KIC, pH 5.0, stopped flow): 3.5 mM
Ki ([2]; read-out: Ki KIC, pH 5.5, stopped flow): 8.1 mM
Ki ([2]; read-out: Ki KIC, pH 6.0, stopped flow): 5.8 mM
Ki ([2]; read-out: Ki KIC, pH 6.5, stopped flow): 7.6 mM
Ki ([1]; pH 5.5, stopped flow, read-out: Ki KIC): 0.24 mM
Vm/KM ([1]; pH 6): 5e+06 M⁻¹ s⁻¹
Ki ([1]; pH 6.0, stopped flow, read-out: Ki KIC): 0.31 mM
Vm (VM (app): turnover at optimal substrate concentration) ([1]; pH 7.5, [NADH] = 0.2 mM): 20 s⁻¹

B1: Lactobacillus delbrueckii ssp. Bulgaricus R-2-hydroxy acid dehydrogenase (LB2HADH), wild type (H206), SEQ ID NO:1 (Lactobacillus delbrueckii) (protein)
chain: T1 sequence (Q48534 1-333)
notes: no tag mentioned
Km [3]: 20000 µM
Km [4]: 1700 µM
kcat/Km [4]: 28000 M⁻¹ s⁻¹
Km [5]: 20 µM
kcat/Km [5]: 650000 M⁻¹ s⁻¹
Km [6]: 20000 µM
Km [7]: 57 µM
kcat/Km [7]: 330000 M⁻¹ s⁻¹
Km [8]: 36 µM
kcat/Km [8]: 1.4e+06 M⁻¹ s⁻¹
Km ([9]; other: 0.2 mM NADH, wild type): 8 µM
kcat ([9]; other: 0.2 mM NADH, wild type): 25 s⁻¹
Km [9, 12]: 10 µM
kcat/Km [9, 12]: 2.8e+06 M⁻¹ s⁻¹
Km [10, 13]: 25 µM
kcat [10, 13]: 170 s⁻¹
kcat/Km [10, 13]: 7e+06 M⁻¹ s⁻¹
Km [10, 14]: 30 µM
kcat [10, 14]: 240 s⁻¹
kcat/Km [10, 14]: 8e+06 M⁻¹ s⁻¹
Km [10, 15]: 50 µM
kcat [10, 15]: 245 s⁻¹
kcat/Km [10, 15]: 5e+06 M⁻¹ s⁻¹
Km [10, 16]: 15 µM
kcat [10, 16]: 75 s⁻¹
kcat/Km [10, 16]: 5e+06 M⁻¹ s⁻¹
Km [10, 12]: 22 µM
kcat/Km [10, 12]: 910000 M⁻¹ s⁻¹
Km [11]: 15 µM
